# Measured values reported in PMC5443838, “Peripherin-2 and Rom-1 have opposing effects on rod outer segment targeting of retinitis pigmentosa-linked peripherin-2 mutants” (Scientific Reports, 2017).
# “And” between values parts separate entries of the source, which are not always exact repeats. Identical values can stand only once.
# B1: citrine- or cerulean-tagged per^WT (FRET construct, HEK293T) (natural protein, human, UniProt P23942 1-346, looked up)
# chain: MALLKVKFDQKKRVKLAQGLWLMNWFSVLAGIIIFSLGLFLKIELRKRSDVMNNSESHFVPNSLIGMGVLSCVFNSLAGKICYDALDPAKYARWKPWLKPYLAICVLFNIILFLVALCCFLLRGSLENTLGQGLKNGMKYYRDTDTPGRCFMKKTIDMLQIEFKCCGNNGFRDWFEIQWISNRYLDFSSKEVKDRIKSNVDGRYLVDGVPFSCCNPSSPRPCIQYQITNNSAHYSYDHQTEELNLWVRGCRAALLSYYSSLMNSMGVVTLLIWLFEVTITIGLRYLQTSLDGVSNPEESESESQGWLLERSVPETWKAFLESVKKLGKGNQVEAEGADAGQAPEAG
# notes: peripherin-2 (PRPH2), human, wild type; in the 'per^WT only' FRET pair the two copies differ in the fluorophore; also called per^WT only; source: HEK293T, transiently co-transfected, in living cells
# What was measured:
# [1] = biological target: the molecule itself; assay: FRET or BRET; 3 cube FRET in living co-transfected HEK293T cells; FRET imaging solution (140 mM NaCl, 5 mM KCl, 2 mM CaCl2, 1 mM MgCl2, 10 mM glucose, 10 mM HEPES, pH 7.4), RT; EAmax from the binding curve of apparent FRET efficiency against the cerulean/citrine molar ratio
# [2] = biological target: T1, citrine- or cerulean-tagged Rom-1 (FRET construct, HEK293T) (human, UniProt Q03395 1-351); assay: as above; settings: partners not purified
# T1 construct: Rom-1, homolog of peripherin-2; 'the single human peripherin-2 and Rom-1 transgenes'; source: HEK293T, transiently co-transfected, in living cells
# [3] = biological target: the molecule itself; assay: sucrose density gradient centrifugation; lysate of transfected HEK293T cells (0.5% Triton X-100, 150 mM NaCl, 2 mM CaCl2) on a 5-20% sucrose gradient with 0.1% Triton X-100 and 10 mM N-ethylmaleimide, 46,700 rpm, 2 h, 4 °C; 11 fractions immunoblotted with myc- or flag-specific antibodies under non-reducing conditions; DNA standards for size
# [4] = biological target: B1; assay: FRET or BRET; 3 cube FRET in living co-transfected HEK293T cells; FRET imaging solution (140 mM NaCl, 5 mM KCl, 2 mM CaCl2, 1 mM MgCl2, 10 mM glucose, 10 mM HEPES, pH 7.4), RT; EAmax from the binding curve of apparent FRET efficiency against the cerulean/citrine molar ratio; settings: partners not purified
# T1 sequence (Q03395 whole entry): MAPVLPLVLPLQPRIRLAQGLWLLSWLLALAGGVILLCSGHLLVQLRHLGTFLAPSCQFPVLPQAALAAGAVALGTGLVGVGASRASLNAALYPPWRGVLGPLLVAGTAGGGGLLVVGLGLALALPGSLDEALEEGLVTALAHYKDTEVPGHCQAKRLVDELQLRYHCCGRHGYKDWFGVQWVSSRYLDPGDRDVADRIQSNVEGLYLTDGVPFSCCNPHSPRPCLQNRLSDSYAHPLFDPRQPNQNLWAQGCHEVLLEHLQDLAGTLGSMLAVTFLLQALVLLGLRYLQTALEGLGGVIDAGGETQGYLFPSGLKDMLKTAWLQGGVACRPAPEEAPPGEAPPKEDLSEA
Binder,EAmax (maximal FRET efficiency) [1] [%],EAmax (maximal FRET efficiency) [2] [%],stoichiometry N [3],EAmax (maximal FRET efficiency) [4] [%]
B1,34.2,15.6,,
"C-terminally myc- or flag-tagged per^WT (SDGC construct) (natural protein, human, UniProt P23942 1-346, looked up, peripherin-2 (PRPH2), human, wild type; also called per^WT only; source: HEK293T, transiently transfected, in lysate (0.5% Triton X-100)) MALLKVKFDQKKRVKLAQGLWLMNWFSVLAGIIIFSLGLFLKIELRKRSDVMNNSESHFVPNSLIGMGVLSCVFNSLAGKICYDALDPAKYARWKPWLKPYLAICVLFNIILFLVALCCFLLRGSLENTLGQGLKNGMKYYRDTDTPGRCFMKKTIDMLQIEFKCCGNNGFRDWFEIQWISNRYLDFSSKEVKDRIKSNVDGRYLVDGVPFSCCNPSSPRPCIQYQITNNSAHYSYDHQTEELNLWVRGCRAALLSYYSSLMNSMGVVTLLIWLFEVTITIGLRYLQTSLDGVSNPEESESESQGWLLERSVPETWKAFLESVKKLGKGNQVEAEGADAGQAPEAG",,,4 and 8,
"C-terminally myc- or flag-tagged per^C214S (SDGC construct) (natural protein, human, UniProt P23942 1-346, looked up, peripherin-2 (PRPH2), human, adRP-linked mutant C214S; also called per^C214S only; per^MT; source: HEK293T, transiently transfected, in lysate (0.5% Triton X-100)) MALLKVKFDQKKRVKLAQGLWLMNWFSVLAGIIIFSLGLFLKIELRKRSDVMNNSESHFVPNSLIGMGVLSCVFNSLAGKICYDALDPAKYARWKPWLKPYLAICVLFNIILFLVALCCFLLRGSLENTLGQGLKNGMKYYRDTDTPGRCFMKKTIDMLQIEFKCCGNNGFRDWFEIQWISNRYLDFSSKEVKDRIKSNVDGRYLVDGVPFSCSNPSSPRPCIQYQITNNSAHYSYDHQTEELNLWVRGCRAALLSYYSSLMNSMGVVTLLIWLFEVTITIGLRYLQTSLDGVSNPEESESESQGWLLERSVPETWKAFLESVKKLGKGNQVEAEGADAGQAPEAG",,,2,
"citrine- or cerulean-tagged per^P210L (FRET construct, HEK293T) (natural protein, human, UniProt P23942 1-346, looked up, peripherin-2 (PRPH2), human, adRP-linked mutant P210L; in the 'per^P210L only' FRET pair the two copies differ in the fluorophore; also called per^P210L only; per^MT; source: HEK293T, transiently co-transfected, in living cells) MALLKVKFDQKKRVKLAQGLWLMNWFSVLAGIIIFSLGLFLKIELRKRSDVMNNSESHFVPNSLIGMGVLSCVFNSLAGKICYDALDPAKYARWKPWLKPYLAICVLFNIILFLVALCCFLLRGSLENTLGQGLKNGMKYYRDTDTPGRCFMKKTIDMLQIEFKCCGNNGFRDWFEIQWISNRYLDFSSKEVKDRIKSNVDGRYLVDGVLFSCCNPSSPRPCIQYQITNNSAHYSYDHQTEELNLWVRGCRAALLSYYSSLMNSMGVVTLLIWLFEVTITIGLRYLQTSLDGVSNPEESESESQGWLLERSVPETWKAFLESVKKLGKGNQVEAEGADAGQAPEAG",30.7,6.58,,9.44
"citrine- or cerulean-tagged per^C214S (FRET construct, HEK293T) (natural protein, human, UniProt P23942 1-346, looked up, peripherin-2 (PRPH2), human, adRP-linked mutant C214S; in the 'per^C214S only' FRET pair the two copies differ in the fluorophore; also called per^C214S only; per^MT; source: HEK293T, transiently co-transfected, in living cells) MALLKVKFDQKKRVKLAQGLWLMNWFSVLAGIIIFSLGLFLKIELRKRSDVMNNSESHFVPNSLIGMGVLSCVFNSLAGKICYDALDPAKYARWKPWLKPYLAICVLFNIILFLVALCCFLLRGSLENTLGQGLKNGMKYYRDTDTPGRCFMKKTIDMLQIEFKCCGNNGFRDWFEIQWISNRYLDFSSKEVKDRIKSNVDGRYLVDGVPFSCSNPSSPRPCIQYQITNNSAHYSYDHQTEELNLWVRGCRAALLSYYSSLMNSMGVVTLLIWLFEVTITIGLRYLQTSLDGVSNPEESESESQGWLLERSVPETWKAFLESVKKLGKGNQVEAEGADAGQAPEAG",26.5,6.32,,8.58
